According to patent publication US20230406907A1:
Where two headings read alike, the source gives them in different places.

How the values were obtained:
[1] = biological target: T1, SARS-CoV-2 spike protein RBD (amino acids 319-537 of SEQ ID NO:1, i.e. SEQ ID NO:5) with a carboxy t (SARS-CoV-2), P0DTC2; settings: remark: other sources report otherwise
[2] = biological target: T1, SARS-CoV-2 spike protein RBD (amino …); settings: remark: other sources report otherwise; remark: listed apart in the source

B1: antibody S1D2 (fully human recombinant monoclonal IgG1, no Fc mutation) (antibody, V domains shown)
VH: EVQLVESGGGLIQPGGSLRLSCAASGFTVSSNYMSWVRQAPGKGLEWVSIIYPGGSTNYADSVKGRFTISRDNSRNTLYLQMNSLRAEDTAVYYCARELGYYGMDVWGQGTTVTVSS
VL: DIQMTQSPSSVSASVGDRVTITCRASQGISTWLVWYQQKPGKAPNLLIYGASSLQSGVPSRFSGSGSGTDFTLTISSLQPEDFATYYCQQANSFPYTFGQGTKLEIK
Question: How did the Kd [1] turn out when B1 was run?
Answer: Its Kd is 46.2 nM.

Question: And the koff [1]?
Answer: The koff was 0.027 s⁻¹.

Question: What about the kon [1] of the same binder?
Answer: Its kon is 584000 M⁻¹ s⁻¹.

Question: And the Kd [2]?
Answer: The Kd was 46 nM.
